Experimental findings from the Human Domainome abundance scans (Beltran et al. 2025) are described below.

± gives the uncertainty stated by the source.

B1: Homeobox protein cut-like 1, residues 941 to 1008; numbered along this chain, P39880 (parent)
chain: QEVDTIELTRQVKEKLAKNGICQRIFGEKVLGLSQGSVSDMLSRPKPWSKLTQKGREPFIRMQLWLNG

The variants in this series derive from B1. In words: abundance fitness (aPCA) (normalised: wild type 0, dead -1); higher = more abundant; growth selection in yeast, the domain comes from the species named. The note with it: Homo sapiens.
Regarding QEVDTIELTRQVEEKLAKNGICQRIFGEKVLGLSQGSVSDMLSRPKPWSKLTQKGREPFIRMQLWLNG, the abundance fitness is -0.208 ± 0.074.
The figure for QEVDTIELTRQVNEKLAKNGICQRIFGEKVLGLSQGSVSDMLSRPKPWSKLTQKGREPFIRMQLWLNG is -0.132 ± 0.097; for QEVDTIELTRQVVEKLAKNGICQRIFGEKVLGLSQGSVSDMLSRPKPWSKLTQKGREPFIRMQLWLNG it is -0.392 ± 0.046.
Turning to QEVDTIELTRQVTEKLAKNGICQRIFGEKVLGLSQGSVSDMLSRPKPWSKLTQKGREPFIRMQLWLNG, the abundance fitness is -0.146 ± 0.063.
Take QEVDTIELTRQVMEKLAKNGICQRIFGEKVLGLSQGSVSDMLSRPKPWSKLTQKGREPFIRMQLWLNG: the abundance fitness is -0.278 ± 0.073.
The figure for QEVDTIELTRQVCEKLAKNGICQRIFGEKVLGLSQGSVSDMLSRPKPWSKLTQKGREPFIRMQLWLNG is -0.459 ± 0.13; for QEVDTIELTRQVDEKLAKNGICQRIFGEKVLGLSQGSVSDMLSRPKPWSKLTQKGREPFIRMQLWLNG it is -0.262 ± 0.081.
On to QEVDTIELTRQVGEKLAKNGICQRIFGEKVLGLSQGSVSDMLSRPKPWSKLTQKGREPFIRMQLWLNG, for which the abundance fitness is -0.419 ± 0.062.
The figure for QEVDTIELTRQVHEKLAKNGICQRIFGEKVLGLSQGSVSDMLSRPKPWSKLTQKGREPFIRMQLWLNG is -0.254 ± 0.098; for QEVDTIELTRQVSEKLAKNGICQRIFGEKVLGLSQGSVSDMLSRPKPWSKLTQKGREPFIRMQLWLNG it is -0.35 ± 0.056.
As for QEVDTIELTRQVQEKLAKNGICQRIFGEKVLGLSQGSVSDMLSRPKPWSKLTQKGREPFIRMQLWLNG, the abundance fitness is -0.1 ± 0.07.
QEVDTIELTRQVPEKLAKNGICQRIFGEKVLGLSQGSVSDMLSRPKPWSKLTQKGREPFIRMQLWLNG: the abundance fitness is -0.159 ± 0.059.
Consider QEVDTIELTRQVAEKLAKNGICQRIFGEKVLGLSQGSVSDMLSRPKPWSKLTQKGREPFIRMQLWLNG, for which the abundance fitness was -0.339 ± 0.059.
To QEVDTIELTRQVREKLAKNGICQRIFGEKVLGLSQGSVSDMLSRPKPWSKLTQKGREPFIRMQLWLNG belongs -0.119 ± 0.056; to QEVDTIELTRQVYEKLAKNGICQRIFGEKVLGLSQGSVSDMLSRPKPWSKLTQKGREPFIRMQLWLNG, -0.475 ± 0.11; to QEVDTIELTRQVLEKLAKNGICQRIFGEKVLGLSQGSVSDMLSRPKPWSKLTQKGREPFIRMQLWLNG, -0.326 ± 0.045.
With QEVDTIELTRQVWEKLAKNGICQRIFGEKVLGLSQGSVSDMLSRPKPWSKLTQKGREPFIRMQLWLNG, the abundance fitness was -0.459 ± 0.088.
Take QEVDTIELTRQVFEKLAKNGICQRIFGEKVLGLSQGSVSDMLSRPKPWSKLTQKGREPFIRMQLWLNG: the abundance fitness was -0.768 ± 0.079.
Consider QEVDTIELTRQVKEFLAKNGICQRIFGEKVLGLSQGSVSDMLSRPKPWSKLTQKGREPFIRMQLWLNG, for which the abundance fitness was -0.175 ± 0.11.
For QEVDTIELTRQVKEGLAKNGICQRIFGEKVLGLSQGSVSDMLSRPKPWSKLTQKGREPFIRMQLWLNG, the abundance fitness was -0.366 ± 0.077.
With QEVDTIELTRQVKEALAKNGICQRIFGEKVLGLSQGSVSDMLSRPKPWSKLTQKGREPFIRMQLWLNG, the abundance fitness was -0.147 ± 0.11.
As to QEVDTIELTRQVKECLAKNGICQRIFGEKVLGLSQGSVSDMLSRPKPWSKLTQKGREPFIRMQLWLNG, the abundance fitness was -0.119 ± 0.095.
To QEVDTIELTRQVKEELAKNGICQRIFGEKVLGLSQGSVSDMLSRPKPWSKLTQKGREPFIRMQLWLNG belongs -0.083 ± 0.13; to QEVDTIELTRQVKEDLAKNGICQRIFGEKVLGLSQGSVSDMLSRPKPWSKLTQKGREPFIRMQLWLNG, -0.586 ± 0.13; to QEVDTIELTRQVKCKLAKNGICQRIFGEKVLGLSQGSVSDMLSRPKPWSKLTQKGREPFIRMQLWLNG, -0.086 ± 0.083.
For the variant QEVDTIELTRQVKVKLAKNGICQRIFGEKVLGLSQGSVSDMLSRPKPWSKLTQKGREPFIRMQLWLNG, the abundance fitness is -0.214 ± 0.067.
The figure for QEVDTIELTRQVKPKLAKNGICQRIFGEKVLGLSQGSVSDMLSRPKPWSKLTQKGREPFIRMQLWLNG is 0.005 ± 0.07; for QEVDTIELTRQVKQKLAKNGICQRIFGEKVLGLSQGSVSDMLSRPKPWSKLTQKGREPFIRMQLWLNG it is -0.14 ± 0.083.
Consider QEVDTIELTRQVKLKLAKNGICQRIFGEKVLGLSQGSVSDMLSRPKPWSKLTQKGREPFIRMQLWLNG, for which the abundance fitness was -0.152 ± 0.059.
In the case of QEVDTIELTRQVKHKLAKNGICQRIFGEKVLGLSQGSVSDMLSRPKPWSKLTQKGREPFIRMQLWLNG, the abundance fitness was -0.498 ± 0.23.
QEVDTIELTRQVKGKLAKNGICQRIFGEKVLGLSQGSVSDMLSRPKPWSKLTQKGREPFIRMQLWLNG: the abundance fitness was -0.156 ± 0.064.
Regarding QEVDTIELTRQVKTKLAKNGICQRIFGEKVLGLSQGSVSDMLSRPKPWSKLTQKGREPFIRMQLWLNG, the abundance fitness is -0.121 ± 0.076.
For the variant QEVDTIELTRQVKNKLAKNGICQRIFGEKVLGLSQGSVSDMLSRPKPWSKLTQKGREPFIRMQLWLNG, the abundance fitness is -0.063 ± 0.21.
Take QEVDTIELTRQVKKKLAKNGICQRIFGEKVLGLSQGSVSDMLSRPKPWSKLTQKGREPFIRMQLWLNG: the abundance fitness is -0.111 ± 0.094.
QEVDTIELTRQVKSKLAKNGICQRIFGEKVLGLSQGSVSDMLSRPKPWSKLTQKGREPFIRMQLWLNG: the abundance fitness was -0.143 ± 0.062.
As to QEVDTIELTRQVKWKLAKNGICQRIFGEKVLGLSQGSVSDMLSRPKPWSKLTQKGREPFIRMQLWLNG, the abundance fitness was -0.221 ± 0.053.
Consider QEVDTIELTRQVKFKLAKNGICQRIFGEKVLGLSQGSVSDMLSRPKPWSKLTQKGREPFIRMQLWLNG, for which the abundance fitness is -0.443 ± 0.12.
As for QEVDTIELTRQVKRKLAKNGICQRIFGEKVLGLSQGSVSDMLSRPKPWSKLTQKGREPFIRMQLWLNG, the abundance fitness is -0.054 ± 0.045.
Consider QEVDTIELTRQVKYKLAKNGICQRIFGEKVLGLSQGSVSDMLSRPKPWSKLTQKGREPFIRMQLWLNG, for which the abundance fitness was -0.418 ± 0.23.
To QEVDTIELTRQYKEKLAKNGICQRIFGEKVLGLSQGSVSDMLSRPKPWSKLTQKGREPFIRMQLWLNG belongs -0.175 ± 0.089.
